Results taken from PMC4511006, “Peptide Inhibitor of Complement C1 (PIC1) Rapidly Inhibits Complement Activation after Intravascular Injection in Rats” (PLoS ONE, 2015).
Ends that are not written are not given here.

How the values were obtained:
Details in all cases: both partners purified
C1q [1] = target: T1, C1q (UniProt P02745 23-245; P02746 28-253; P02747 29-245); test: ELISA; AcPA adsorbed to the plate at 2.5 uM; purified C1q (1 ug) added in 50 mM HEPES pH 7.0 with various concentrations of NaCl, 1 h, room temperature; detected with goat anti-C1q
T1 construct: also called purified C1q; intact C1q

[2] = target: Wild-type recombinant ficolin L (ficolin-2) (human, UniProt Q15485 26-313); test: ELISA; ficolins adsorbed at 10 ug/mL, C1q at 25 nM, BSA at 30 ug/mL; biotinylated PA added at various concentrations in blocking buffer with 0.4 M NaCl, 1 h, room temperature; neutravidin-HRP
[3] = target: Wild-type recombinant ficolin H (ficolin-3) (human, UniProt O75636 24-299); test: as above
[4] = target: Wild-type recombinant ficolin M (ficolin-1) (human, UniProt O00602 30-326); test: as above
C1q [5] = target: T1, C1q; test: cross-linking; C1q and biotinylated PA at a ratio of 1:25 in 0.1 M Na2HPO4, 0.15 M NaCl, pH 8.0, room temperature 2.5 h, with or without 20 uM BS3; SDS-PAGE and blot with streptavidin and anti-C1q

T1 sequence (P02745 23-245, chain 1 of 3): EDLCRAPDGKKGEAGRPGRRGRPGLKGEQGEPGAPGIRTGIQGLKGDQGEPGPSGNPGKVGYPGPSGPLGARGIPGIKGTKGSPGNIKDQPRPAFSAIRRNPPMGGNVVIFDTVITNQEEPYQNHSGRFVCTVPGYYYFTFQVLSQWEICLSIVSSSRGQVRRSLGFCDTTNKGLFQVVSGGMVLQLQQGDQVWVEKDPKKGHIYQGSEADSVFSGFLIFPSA
T1 sequence (P02746 28-253, chain 2 of 3): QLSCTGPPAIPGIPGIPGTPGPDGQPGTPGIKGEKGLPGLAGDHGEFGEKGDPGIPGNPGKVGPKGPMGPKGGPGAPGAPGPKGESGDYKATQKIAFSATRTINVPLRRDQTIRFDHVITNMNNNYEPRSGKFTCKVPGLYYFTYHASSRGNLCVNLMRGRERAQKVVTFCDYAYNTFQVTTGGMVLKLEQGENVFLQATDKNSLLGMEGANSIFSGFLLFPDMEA
T1 sequence (P02747 29-245, chain 3 of 3): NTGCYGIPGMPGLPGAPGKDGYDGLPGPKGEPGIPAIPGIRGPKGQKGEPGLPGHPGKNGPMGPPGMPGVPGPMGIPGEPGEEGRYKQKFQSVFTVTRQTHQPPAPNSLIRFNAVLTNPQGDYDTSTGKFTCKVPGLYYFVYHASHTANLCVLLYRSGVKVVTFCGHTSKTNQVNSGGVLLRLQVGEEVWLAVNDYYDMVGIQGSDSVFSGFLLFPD
Sequence of Wild-type recombinant ficolin M (ficolin-1) (O00602 30-326): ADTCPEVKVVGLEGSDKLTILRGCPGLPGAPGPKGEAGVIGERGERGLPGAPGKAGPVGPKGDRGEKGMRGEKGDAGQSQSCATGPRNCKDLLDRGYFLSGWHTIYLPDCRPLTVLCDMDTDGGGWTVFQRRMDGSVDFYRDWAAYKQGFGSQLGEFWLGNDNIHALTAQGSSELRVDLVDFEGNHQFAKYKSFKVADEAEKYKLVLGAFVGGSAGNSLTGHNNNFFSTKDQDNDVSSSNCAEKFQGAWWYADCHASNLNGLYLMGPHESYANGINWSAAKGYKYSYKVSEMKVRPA
Sequence of Wild-type recombinant ficolin L (ficolin-2) (Q15485 26-313): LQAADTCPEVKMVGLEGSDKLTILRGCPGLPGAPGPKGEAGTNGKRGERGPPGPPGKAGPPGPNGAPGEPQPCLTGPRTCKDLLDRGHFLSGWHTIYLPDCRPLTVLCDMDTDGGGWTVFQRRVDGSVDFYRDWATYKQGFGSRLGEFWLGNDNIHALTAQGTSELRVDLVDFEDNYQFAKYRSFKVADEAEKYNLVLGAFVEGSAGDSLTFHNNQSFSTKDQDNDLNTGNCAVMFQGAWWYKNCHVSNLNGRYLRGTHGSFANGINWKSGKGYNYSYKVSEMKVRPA
Sequence of Wild-type recombinant ficolin H (ficolin-3) (O75636 24-299): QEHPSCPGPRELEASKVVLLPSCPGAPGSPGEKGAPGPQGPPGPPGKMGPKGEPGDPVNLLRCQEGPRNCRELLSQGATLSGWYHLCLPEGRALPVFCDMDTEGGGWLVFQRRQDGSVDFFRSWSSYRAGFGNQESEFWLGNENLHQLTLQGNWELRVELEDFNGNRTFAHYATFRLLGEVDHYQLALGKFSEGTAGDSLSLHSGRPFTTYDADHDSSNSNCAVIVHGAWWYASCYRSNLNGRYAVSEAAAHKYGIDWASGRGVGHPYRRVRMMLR

Binder	binding result (C1q [1])	binding result [2]	binding result [3]	binding result [4]	binding result (C1q [5])
IALILEPICCQERAA (cysteine pairing not given here; also: acetylated, position not given here, Polar Assortant (PA), 15 amino-acid derivative obtained by extensive modification of a 15-residue peptide of the human astrovirus type 1 coat protein; also called acetylated Polar Assortant peptide; PIC1; source: synthetic peptide, bought: New England Peptide (>=90% purity)) [Acetylated PA (AcPA)]	binds				
IALILEPICCQERAA-biotin (cysteine pairing not given here, Polar Assortant (PA), 15 amino-acid derivative of a human astrovirus type 1 coat protein peptide; Detected by its biotin (streptavidin IR 680 or neutravidin-HRP); source: synthetic peptide, bought: New England Peptide (>=90% purity)) [C-terminally biotinylated PA peptide]		binds	binds	binds	binds
